These results are taken from patent publication US20260151519A1 (AKTIS ONCOLOGY, published 2026).

By Kd is commonly meant the concentration at which binding is half-saturated.

This assay has as its target T1, Human Nectin-4 (human, UniProt Q96NY8 32-349, limits assumed).
T1 construct: Protein immobilised on the SPR chip; also called target protein
T1 sequence: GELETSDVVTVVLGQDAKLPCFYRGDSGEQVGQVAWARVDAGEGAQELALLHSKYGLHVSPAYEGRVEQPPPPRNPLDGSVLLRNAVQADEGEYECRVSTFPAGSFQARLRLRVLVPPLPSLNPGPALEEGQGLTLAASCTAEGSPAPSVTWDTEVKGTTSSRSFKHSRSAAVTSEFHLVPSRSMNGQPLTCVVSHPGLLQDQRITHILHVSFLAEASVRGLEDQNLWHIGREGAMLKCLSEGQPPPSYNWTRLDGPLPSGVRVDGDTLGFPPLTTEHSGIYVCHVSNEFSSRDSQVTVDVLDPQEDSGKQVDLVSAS
Briefly: Table 2B (DELFIA or SPR).

Bridges are numbered along the chain shown (N, C = ends). Primed or numbered codes have the meaning given here. Where no end group is shown, it is not given here. The star is where a group is joined. FITC = O=C1OC2(c3ccc(O)cc3Oc3cc(O)ccc32)c2ccc(NC(=S)*)cc21; DTPA = O=C(O)CN(CCN(CC(=O)O)CC(=O)O)CCN(CC(=O)O)CC(=O)*; Biotin = O=C1N[C@H]2[C@H](CS[C@H]2CCCCC(=O)*)N1; PEG4″ = 4(ethylene glycol)

Molecule {Biotin-PEG4″}-CEYDEEFFTALKRLRGDDICEYIQASFQYLPGLCIEEILDNLGCS-OH (designed binder, disulfide 1-34, 20-44) [C181] came in with a Kd of 3 nM.

The molecule {Biotin-PEG4″}-CDYDEEFFTALKRLRGDDICSYIQASFQYLPGLCIEEILDNLGCS-OH (designed binder, disulfide 1-34, 20-44) [C192] came in with a Kd of 1.3 nM.

On to {Biotin-PEG4″}-CDYDEQFFTALKRLRGGDICEYIQASFQYLPGQCIEEILDNLGCS (designed binder, disulfide 1-34, 20-44) [C211], for which the affinity, expressed as Kd, was 1.19 nM.

Molecule {Biotin-PEG4″}-CEYDEEFFTALKRLRGGDICEYIQASFQYLPGECIEEILDNLGCS (designed binder, disulfide 1-34, 20-44) [C202] displayed a Kd of 2.2 nM.

As for {Biotin-PEG4″}-CEYDEEFFTALKRLRGGDICDYIQASFQYLPGECIEEILQNLGCS-OH (designed binder, disulfide 1-34, 20-44) [C205], the Kd amounted to 2.1 nM. This Kd and that of the molecule before are within 1.5-fold of each other.

The molecule {Biotin-PEG4″}-CDYDEEFFTALKRLRGDDICEYIQASFQYLPGLCIEEILDNLGCS-OH (designed binder, disulfide 1-34, 20-44) [C191] showed a Kd of 1.4 nM.

For the molecule {Biotin-PEG4″}-CEYDEEFFTALKRLRGGDICEYIQAAFQYLPGLCIEEILDNLGCS-OH (designed binder, disulfide 1-34, 20-44) [C198], the dissociation constant Kd is 2.3 nM.

For {Biotin-PEG4″}-CDYDEQFFTALKRLRGGDICEYIQASFQYLPGECIEEILDNLGCS (designed binder, disulfide 1-34, 20-44) [C210], the Kd was determined as 1.54 nM. The Kd values of the last two molecules are within 1.5-fold of each other.

{Biotin-PEG4″}-CDYDEQFFTALKRLRGDDICEYIQASFQYLPGLCIEEILDNLGCS-OH (designed binder, disulfide 1-34, 20-44) [C193] gave a Kd of 1 nM.

The molecule {Biotin-PEG4″}-CEYDEQFFTALKRLRGADICEYIQASFQYLPGLCIEEILDNLGCS-OH (designed binder, disulfide 1-34, 20-44) [C183] returned a Kd of 1.2 nM.

The molecule {Biotin-PEG4″}-CEYDEEFFTALKRLRGGDICEYIQASFQYLPGECIEEILQNLGCS-OH (designed binder, disulfide 1-34, 20-44) [C204] showed a Kd of 1.98 nM.

On to {Biotin-PEG4″}-CDYDEEFFTALKRLRGGDICSYIQASFQYLPGLCIEEILDNLGCS-OH (designed binder, disulfide 1-34, 20-44) [C189], for which binding was put at a Kd of 1.1 nM.

{Biotin-PEG4″}-CDYDEEFFTALKRLRGGDICEYIQASFQYLPGLCIEEILDNLGCS-OH (designed binder, disulfide 1-34, 20-44) [C188] displayed a Kd of 1.6 nM.

{Biotin-PEG4″}-CDYDEQFFTALKRLRGADICEYIQASFQYLPGLCIEEILDNLGCS-OH (designed binder, disulfide 1-34, 20-44) [C207] displayed a Kd of 1.08 nM.

The molecule {Biotin-PEG4″}-CEYDEEFFTALKRLRGGDICDYIQASFQYLPGECIEEILDNLGCS-OH (designed binder, disulfide 1-34, 20-44) [C203] returned a Kd of 2.3 nM.

Molecule {Biotin-PEG4″}-CDYDEQFFTALKRLRGADICEYIQASFQYLPGQCIEEILDNLGCS (designed binder, disulfide 1-34, 20-44) [C209] yielded a Kd of 1.25 nM. This Kd lies about 1.8-fold lower than the previous one.

Regarding {Biotin-PEG4″}-CEYDEQFFTALKRLRGGDICSYIQASFQYLPGLCIEEILDNLGCS (designed binder, disulfide 1-34, 20-44) [C184], the Kd came out at 2.5 nM. This Kd is about 2-fold higher than that of the molecule before.

Molecule {Biotin-PEG4″}-CEYDEEFFTALKRLRGGDICDYIQASFQYLPGLCIEEILDNLGCS-OH (designed binder, disulfide 1-34, 20-44) [C200] displayed a Kd of 2 nM.

In the case of {Biotin-PEG4″}-CEYDEEFFTALKRLRGADICDYIQASFQYLPGLCIEEILDNLGCS-OH (designed binder, disulfide 1-34, 20-44) [C195], the affinity, expressed as Kd, was 2.3 nM.

On to {Biotin-PEG4″}-CEYDEQFFTALKRLRGDDICSYIQASFQYLPGLCIEEILDNLGCS (designed binder, disulfide 1-34, 20-44) [C186], for which the affinity, expressed as Kd, was 1.7 nM.

{Biotin-PEG4″}-CEYDEEFFTALKRLRGDDICSYIQASFQYLPGLCIEEILDNLGCS-OH (designed binder, disulfide 1-34, 20-44) [C182] showed a Kd of 3 nM.

As to {Biotin-PEG4″}-CEYDEQFFTALKRLRGADICDYIQASFQYLPGLCIEEILDNLGCS-OH (designed binder, disulfide 1-34, 20-44) [C194], binding was characterised by a dissociation constant (Kd) of 1.1 nM.

Take Ac-CEYDEEFFAGLKRLRGGDICYYIKKKFKKVPDLCIEEILDKLGC-OH (designed binder, disulfide 1-34, 20-44) [C16]: the Kd stood at 4.34 nM.

In turn, {DTPA-PEG4″}-CEYDEEFFAGLKRLRGGDICYYIKKKFDKVPDLCIEEILDKLGC-OH (designed binder, disulfide 1-34, 20-44) [C11] came in with a Kd of 6.86 nM.

In turn, Ac-CEYDEEFFAGLKRLRGGDICYYIKKKFPKVPDLCIEEILDKLGC-OH (designed binder, disulfide 1-34, 20-44) [C19] yielded a Kd of 10.8 nM.

Ac-CEYDEEFFAGLKRLRRGDICYYIKKKFDKVPDLCIEEILDKLGC (designed binder, disulfide 1-34, 20-44) [C14]: the Kd came to 14.1 nM.

In turn, Ac-CEYDEEFFAGLHRLRGGDICYYIKKKFPKVPDLCIEEILDKLGC-OH (designed binder, disulfide 1-34, 20-44) [C21] returned a Kd of 49.4 nM.

Consider Ac-CEYDEEFFNGLHRLRRGDICYYIKKKFKKVPDLCIEEILDKLGC-OH (designed binder, disulfide 1-34, 20-44) [C18], for which the affinity, expressed as Kd, was 38.2 nM.

For the molecule H-CEYDEEFFAGLKRLRGGDICYYIKKKFDKVPDLCIEEILDKLGC-OH (designed binder, disulfide 1-34, 20-44) [C7], the Kd was 5.5 nM.

With {Biotin-PEG4″}-CEDDEEFFADLKRLRGGDICYYIKLKFDKVPDLCIKEILDKLGC (designed binder, disulfide 1-34, 20-44) [C2], binding was characterised by a dissociation constant (Kd) of 58.9 nM.

The molecule H-CEYDEEFFAGLKRLRGGDICYYIKKKFDKVPDLCIKEILDKLGC-OH (designed binder, disulfide 1-34, 20-44) [C3] returned a Kd of 9.68 nM.

Ac-CEYDEEFFNGLKRLRRGDICYYIKKKFDKVPDLCIEEILDKLGC-OH (designed binder, disulfide 1-34, 20-44) [C15] registered a Kd of 12.2 nM. The Kd values of the last two molecules are within 1.5-fold of each other.

Ac-CEYDEEFFNGLKRLRGGDICYYIKKKFKKVPDLCIEEILDKLGC-OH (designed binder, disulfide 1-34, 20-44) [C17]: the affinity, expressed as Kd, was 4.16 nM.

Ac-CEYDEEFFNGLKRLRGGDICYYIKKKFDKVPDLCIEEILDKLGC-OH (designed binder, disulfide 1-34, 20-44) [C13] yielded a Kd of 6.01 nM.

Take Ac-CEYDEEFFAGLHRLRGGDICYYIKKKFDKVPDLCIEEILDKLGC-OH (designed binder, disulfide 1-34, 20-44) [C20]: the affinity, expressed as Kd, was 22.1 nM.

In turn, H-CEDDFQFFADLKRLRGGDICYYIRLKFDKVPDLCIKEILDKLGC-OH (designed binder, disulfide 1-34, 20-44) [C4] had a Kd of 14.4 nM.

In turn, Ac-CEYDEEFFAGLKRLRGGDICYYIKKKFDKVPDLCIKEILDKLGC-OH (designed binder, disulfide 1-34, 20-44) [C5] displayed a Kd of 18.9 nM.

Ac-CEDDFQFFADLKRLRGGDICYYIRLKFDKVPDLCIKEILDKLGC-OH (designed binder, disulfide 1-34, 20-44) [C6] came in with a Kd of 17.1 nM. This Kd and that of the molecule before are within 1.5-fold of each other.

Take {FITC}-CEYDEEFFAGLKRLRGGDICYYIKKKFDKVPDLCIEEILDKLGC-OH (designed binder, disulfide 1-34, 20-44) [C10]: the Kd came out at 37.6 nM.
